Columns and labels:
Experiment in all cases: competitive MHC class II binding assay
HLA-DRB1*1501 = molecular target: T1, HLA-DRB1*1501 (human)
T1 construct: human MHC class II allotype

DQA1*0102/DQB1*0602 = molecular target: T2, DQA1*0102/DQB1*0602 (human, UniProt P01920 33-230, limits assumed)
T2 construct: human MHC class II allotype
T2 MHC II alpha: not shown
T2 MHC II beta: not shown

HLA-DRB1*0701 = molecular target: T3, HLA-DRB1*0701 (human)
T3 construct: human MHC class II allotype

HLA-DRB1*0101 = molecular target: T4, HLA-DRB1*0101 (human)
T4 construct: human MHC class II allotype

HLA-DRB1*1301 = molecular target: T5, HLA-DRB1*1301 (human)
T5 construct: human MHC class II allotype

HLA-DRB1*1101 = molecular target: T6, HLA-DRB1*1101 (human)
T6 construct: human MHC class II allotype

HLA-DRB1*0401 = molecular target: T7, HLA-DRB1*0401 (human)
T7 construct: human MHC class II allotype

HLA-DRB1*0301 = molecular target: T8, HLA-DRB1*0301 (human)
T8 construct: human MHC class II allotype

Measured: binding result

HIGIIDLKGELDMRN [HDM31A]
no binding: all assays above

PNVNKIREALAQT [HDM07]
no binding: all assays above

NKIREALAQTHSA [HDM08]
no binding: all assays above

KVLAPAFKKELER [HDM50]
no binding: all assays above

ANVKSEDGVVKAH [HDM37]
no binding: all assays above

EYIQHNGVVQESY [HDM05]
no binding: all assays above

IGIIDLKGELDMRN [HDM31]
no binding: all assays above

IDLKGELDMRNIQVR [HDM32A]
no binding: all assays above

KSETFDPMKVPDHSD [HDM29B]
no binding: all assays above

KRVGDANVKSEDG [HDM36]
no binding: all assays above
